Measurements published in US20240124575A1.
Read-outs that look alike come from different tables or passages of the source. Values belong to the substance of their own block, whether it stands above or below them.

How the values were obtained:
[1] = biological target: monkey CD33 protein (monkey); assay: ELISA, coated monkey CD33, antibody 100 nM
[2] = biological target: monkey CD33 protein (monkey); assay: ELISA, coated monkey CD33, antibody 0.0001 nM
[3] = biological target: murine CD33 protein (murine) (UniProt Q63994); assay: ELISA, coated murine CD33, antibody 0.001 nM
murine CD33 protein (murine), sequence (Q63994 18-240 limits assumed): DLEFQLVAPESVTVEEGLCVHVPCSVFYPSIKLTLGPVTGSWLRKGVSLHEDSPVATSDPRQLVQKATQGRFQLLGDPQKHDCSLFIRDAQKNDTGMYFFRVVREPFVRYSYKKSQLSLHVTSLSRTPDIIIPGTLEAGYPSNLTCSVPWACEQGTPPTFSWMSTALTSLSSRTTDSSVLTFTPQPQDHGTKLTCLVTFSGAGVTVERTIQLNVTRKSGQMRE

[4] = biological target: monkey CD33 protein (monkey); assay: ELISA, coated monkey CD33, antibody 0.01 nM
[5] = biological target: monkey CD33 protein (monkey); assay: ELISA, coated monkey CD33, antibody 0.1 nM
[6] = biological target: murine CD33 protein (murine) (UniProt Q63994); assay: ELISA, coated murine CD33, antibody 0.01 nM
[7] = biological target: monkey CD33 protein (monkey); assay: ELISA, coated monkey CD33, antibody 10 nM
[8] = biological target: monkey CD33 protein (monkey); assay: ELISA, coated monkey CD33, antibody 1 nM
[9] = biological target: murine CD33 protein (murine) (UniProt Q63994); assay: ELISA, coated murine CD33, antibody 0.0001 nM
[10] = biological target: murine CD33 protein (murine) (UniProt Q63994); assay: ELISA, coated murine CD33, antibody 0.1 nM
[11] = biological target: murine CD33 protein (murine) (UniProt Q63994); assay: ELISA, coated murine CD33, antibody 1 nM
[12] = biological target: monkey CD33 protein (monkey); assay: ELISA, coated monkey CD33, antibody 1 nM; remark: listed apart in the source
[13] = biological target: murine CD33 protein (murine) (UniProt Q63994); assay: ELISA, coated murine CD33, antibody 100 nM
[14] = biological target: monkey CD33 protein (monkey); assay: ELISA, coated monkey CD33, antibody 0.001 nM
[15] = biological target: monkey CD33 protein (monkey); assay: ELISA, coated monkey CD33, antibody 0.01 nM; remark: listed apart in the source
[16] = biological target: monkey CD33 protein (monkey); assay: ELISA, coated monkey CD33, antibody 0.001 nM; remark: listed apart in the source
[17] = biological target: monkey CD33 protein (monkey); assay: ELISA, coated monkey CD33, antibody 10 nM; remark: listed apart in the source
[18] = biological target: monkey CD33 protein (monkey); assay: ELISA, coated monkey CD33, antibody 0.0001 nM; remark: listed apart in the source
[19] = biological target: monkey CD33 on HEK293T-monkey CD33 cells (monkey); assay: FACS on HEK293T-monkey CD33 cells
[20] = biological target: murine CD33 protein (murine) (UniProt Q63994); assay: ELISA, coated murine CD33, antibody 10 nM
[21] = biological target: monkey CD33 protein (monkey); assay: ELISA, coated monkey CD33, antibody 100 nM; remark: listed apart in the source
[22] = biological target: monkey CD33 on HEK293T-monkey CD33 cells (monkey); assay: FACS on HEK293T-monkey CD33 cells; remark: listed apart in the source
[23] = biological target: human CD33-His (extracellular domain Asp 18-His 259) (human) (UniProt P20138); assay: ELISA, antigen coated
human CD33-His (extracellular domain Asp 18-His 259) (human), sequence (P20138 18-259 limits assumed): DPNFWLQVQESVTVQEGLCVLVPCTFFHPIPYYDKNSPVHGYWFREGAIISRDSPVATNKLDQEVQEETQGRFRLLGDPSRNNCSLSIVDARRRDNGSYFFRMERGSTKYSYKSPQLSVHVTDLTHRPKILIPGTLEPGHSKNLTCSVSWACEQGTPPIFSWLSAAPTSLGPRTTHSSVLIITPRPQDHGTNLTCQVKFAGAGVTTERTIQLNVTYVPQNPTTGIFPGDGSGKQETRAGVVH

human CD33-V-his (human) = human CD33-V-his (human) (UniProt P20138); assay: ELISA, antigen coated
human CD33-V-his (human), sequence (P20138 other isoform, or with tags, fused parts or gaps limits assumed): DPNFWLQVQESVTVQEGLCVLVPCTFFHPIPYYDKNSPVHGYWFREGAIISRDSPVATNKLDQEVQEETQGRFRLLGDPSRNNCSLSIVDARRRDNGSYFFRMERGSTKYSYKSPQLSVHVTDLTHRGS

[24] = biological target: murine CD33-His protein (murine) (UniProt Q63994); assay: ELISA, antigen coated
murine CD33-His protein (murine), sequence (Q63994 18-240 limits assumed): as the sequence (Q63994 18-240 limits assumed) above

[25] = biological target: human CD33-His (extracellular domain Asp 18-His 259) (human) (UniProt P20138); assay: ELISA, antigen coated; remark: listed apart in the source
[26] = biological target: human CD33-C2-his (human) (UniProt P20138); assay: ELISA, antigen coated
human CD33-C2-his (human), sequence (P20138 other isoform, or with tags, fused parts or gaps limits assumed): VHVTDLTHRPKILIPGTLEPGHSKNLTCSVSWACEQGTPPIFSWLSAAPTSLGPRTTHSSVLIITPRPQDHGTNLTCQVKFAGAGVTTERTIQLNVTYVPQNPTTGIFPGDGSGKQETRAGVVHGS

[27] = biological target: human CD33 on CHO-K1 cells (CHO-K1-human CD33) (human) (UniProt P20138); assay: FACS, CHO-K1-human CD33 cells
human CD33 on CHO-K1 cells (CHO-K1-human CD33) (human), sequence (P20138 18-364): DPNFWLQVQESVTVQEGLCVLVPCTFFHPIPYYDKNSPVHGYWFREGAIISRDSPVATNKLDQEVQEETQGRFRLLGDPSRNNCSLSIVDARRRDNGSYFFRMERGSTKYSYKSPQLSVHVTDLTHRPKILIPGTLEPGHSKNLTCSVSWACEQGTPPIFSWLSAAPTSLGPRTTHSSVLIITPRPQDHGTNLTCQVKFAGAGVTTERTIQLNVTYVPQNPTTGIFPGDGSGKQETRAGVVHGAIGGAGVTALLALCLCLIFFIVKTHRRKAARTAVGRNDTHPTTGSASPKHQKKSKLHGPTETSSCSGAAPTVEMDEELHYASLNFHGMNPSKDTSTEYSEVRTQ

[28] = biological target: human CD33-His (extracellular domain Asp 18-His 259) (human) (UniProt P20138); assay: ELISA, antigen coated; remark: listed apart in the source
[29] = biological target: human CD33 on CHO-K1 cells (CHO-K1-human CD33) (human) (UniProt P20138); assay: FACS, CHO-K1-human CD33 cells; remark: listed apart in the source
[30] = biological target: human CD33 on U937 cells (endogenous) (human) (UniProt P20138); assay: FACS, U937 cells
human CD33 on U937 cells (endogenous) (human), sequence (P20138 18-364): as above

[31] = biological target: human CD33 on U937 cells (endogenous) (human) (UniProt P20138); assay: FACS, U937 cells; remark: listed apart in the source

OD450 [1]: 0.08 OD450
OD450 [2]: 0.05 OD450
OD450 [3]: 0.06 OD450
OD450 [4]: 0.04 OD450
OD450 [5]: 0.05 OD450
OD450 [6]: 0.06 OD450
OD450 [7]: 0.05 OD450
OD450 [8]: 0.04 OD450
OD450 [9]: 0.06 OD450
OD450 [10]: 0.06 OD450
OD450 [11]: 0.06 OD450
OD450 [12]: 0.05 OD450
OD450 [13]: 0.08 OD450
OD450 [14]: 0.07 OD450
OD450 [15]: 0.05 OD450
OD450 [16]: 0.04 OD450
OD450 [17]: 0.06 OD450
OD450 [18]: 0.06 OD450
Max MFI [19]: 322 MFI
OD450 [20]: 0.07 OD450
OD450 [21]: 0.06 OD450
Max MFI [22]: 107 MFI
Substance: anti-hel-hIgG1 antibody

OD450 at 0.0001 nM [23]: 0.05 OD450
OD450 at 0.001 nM [23]: 0.06 OD450
OD450 at 0.01 nM [23]: 0.06 OD450
OD450 at 0.1 nM [23]: 0.05 OD450
OD450 at 1 nM [23]: 0.05 OD450
OD450 at 10 nM [23]: 0.05 OD450
OD450 at 100 nM [23]: 0.05 OD450
OD450 at 0.0001 nM (human CD33-V-his (human)): 0.23 OD450
OD450 at 0.001 nM (human CD33-V-his (human)): 0.33 OD450
OD450 at 0.01 nM (human CD33-V-his (human)): 0.2 OD450
OD450 at 0.1 nM (human CD33-V-his (human)): 0.23 OD450
OD450 at 1 nM (human CD33-V-his (human)): 0.22 OD450
OD450 at 10 nM (human CD33-V-his (human)): 0.22 OD450
OD450 at 100 nM (human CD33-V-his (human)): 0.31 OD450
OD450 at 0.0001 nM [24]: 0.05 OD450
OD450 at 0.001 nM [24]: 0.06 OD450
OD450 at 0.01 nM [24]: 0.06 OD450
OD450 at 0.1 nM [24]: 0.06 OD450
OD450 at 1 nM [24]: 0.06 OD450
OD450 at 10 nM [24]: 0.06 OD450
OD450 at 100 nM [24]: 0.06 OD450
OD450 at 0.0001 nM [25]: 0.06 OD450
OD450 at 0.01 nM [25]: 0.05 OD450
OD450 at 0.1 nM [25]: 0.06 OD450
OD450 at 1 nM [25]: 0.06 OD450
OD450 at 10 nM [25]: 0.08 OD450
OD450 at 100 nM [25]: 0.1 OD450
OD450 at 0.0001 nM [26]: 0.26 OD450
OD450 at 0.001 nM [26]: 0.25 OD450
OD450 at 0.01 nM [26]: 0.24 OD450
OD450 at 0.1 nM [26]: 0.27 OD450
OD450 at 1 nM [26]: 0.23 OD450
OD450 at 10 nM [26]: 0.24 OD450
OD450 at 100 nM [26]: 0.3 OD450
Max MFI [27]: 389 MFI
OD450 at 0.0001 nM [28]: 0.04 OD450
OD450 at 0.001 nM [28]: 0.04 OD450
OD450 at 0.01 nM [28]: 0.04 OD450
OD450 at 0.1 nM [28]: 0.03 OD450
OD450 at 1 nM [28]: 0.03 OD450
OD450 at 10 nM [28]: 0.04 OD450
OD450 at 100 nM [28]: 0.06 OD450
Max MFI [29]: 140 MFI
Max MFI [30]: 84 MFI
Max MFI [31]: 162 MFI
Substance: anti-hel-hIgG1 antibody against hen egg lysozyme
